Measured values: the DeepSol protein solubility set

Experiment: soluble on expression in E. coli; label from the status in PepcDB or PDB records

Sequence	soluble on expression in E. coli
LMENGPEFKIEVSILKDVATVMIDTTGSSLFKRGYRTEKGGAPIKENMAAAILQLSNWYPDKPLIDPTCGSGTFCIEAVMIARKMAPGLRRSFAFEEWNWISDRLIQEVRTEAAKKVDRELELDIMGCDIDARMVEIAKANAQVAGVAGDITFKQMRVQDLRSDKINGVIISNPPYGERLSDDAGVTKLYAEMGQVFAPLKTWSKFILTSDEAFESKYGSQADKKRKLYNGTLKVDLYQYFGQRVKRQEVK	not soluble
LMVGGLLLAAASNNVQAEALQPDPAWQQGKLDNGFSWQLLATPQRPSDRIELRLIVNTGSLSENTQEVGFAHLLPRLALMSSASFTPAQLQSLWQQGIDNERPLPPAITSYDFTLYSLSLPNNRPDLLKDALAWLSDTAGNLAVSEQTVNAALNTATDPIATFPQNIQEPWWRYRLKGSSLIGHDPGQPVTQPVDVEKLKQFYQQWYTPDAMTLYVVGNVDSRSIAAQISKAFSELKGKRTAPAAVATLAPLPPEPVSLMNEQAAQDTLSLMWDTPWHPIQDSMALSRYWRSDLAREALFWHIKQVLEKNNQKNLKLGFDCRVQYQRAQCAIHLNTPVENLTANMTFVARELAALRANGLSQAEFDALMTQKNDQLSKLFATYARTDTDILMSQRLRSQQSGVVDIAPEQYQKLRQAFLSGLTLAELNRELKQQLSQDTTLVLMQPKGEPEVNVKALQEIYNGIMAPQTVAEEEVAPAEAVETAPVMPTTAQ	soluble
LNKTVKHMWPFICQFIEKLFRETIEPAVRGANTHLSTFSFTKVDVGQQPLRINGVKVYTENVDKRQIILDLQISFVGNCEIDLEIKRYFCRAGVKSIQIHGTMRVILEPLIGDMPLVGALSIFFLRKPLLEINWTGLTNLLDVPGLNGLSDTIILDIISNYLVLPNRITVPLVSEVQIAQLRFPVPKGVLRIHFIEAQDLQGKDTYLKGLVKGKSDPYGIIRVGNQIFQSRVIKENLSPKWNEVYEALVYEHPGQELEIELFDEDPDKDDFLGSLMIDLIEVEKERLLDEWFTLDEVPKGKLHLRLEWLTLMPNASNLDKVLTDIKADKDQANDGLSSALLILYLDSARNLPSGKKISSNPNPVVQMSVGHKAQESKIRYKTNEPVWEENFTFFIHNPKRQDLEVEVRDEQHQCSLGNLKVPLSQLLTSEDMTVSQRFQLSNSGPNSTIKMKIALRVLHLEKRERPPDHQHSAQVKRPSVSKEGRKTSIKSHMSGSPGPGGSNTAPSTPVIGGSDKPGMEEKAQPPEAGPQGLHDLGRSSSSLLASPGHISVKEPTPSIASDISLPIATQELRQRLRQLENGTTLGQSPLGQIQLTIRHSSQRNKLIVVVHACRNLIAFSEDGSDPYVRMYLLPDKRRSGRRKTHVSKKTLNPVFDQSFDFSVSLPEVQRRTLDVAVKNSGGFLSKDKGLLGKVLVALASEELAKGWTQWYDLTEDGTRPQAMT	soluble
LPDLRRRVLSGPLFAWFQKVLPPMSDTEREAIEAGTVWWDGELFSGRPDWQKLLDYPKAQLTEEEQAFVDGPTEELCAMVSDWDIGQRMDLPEEAWAFIKQHGFFGLIIPKEYGGKGFSAFAHSQVVMKLATRSGDLASTVMVPNSLGPAELLLHYGTDEQRQRYLPSLAKGDDIPCFALTGPYAGSDAGGMTDVGIVCKGEWEGREVLGLRLTWEKRYITLGPVATLLGLAFKCHDPDHLLGDEEDLGITLALIPTDTPGVEIGRRHVPLGAAFMNGPNSGKDVFVPLEYIIGGQEMIGKGWMMLMNCLSVGRSISLPAVGTSAGKASSYVSGRYAQVREQFNVPIAAFEGIQEALARIGGNAWLMDSARILTANAVDLGEKPSVLSAILKYHLTERGRECIAHAMDIHGGKGIIMGPNNYLGRSWQGAPIFITVEGANILSRNLMIFGQGAIRCHPYVLKEMELAQREDKDQAAREFDA	not soluble
LRIYSADNLLIGEFGEERRDFIKIEEVPKSLKQAILAAEDDRFYQHYGVDYIGVLRAIYSNFKAGGAHQGASTITMQVARNFFLTKEKTLTRKFSEALLAFKIEHSLEKDQILELYINQIYLGQRSYGFSSAAQSYFGKQLTDINLAEAAMLAGLPKAPSRFNPIVNL	not soluble
LRYNLWFGVYDGKEIKLSENFEESFLKAENPSPLPFNVSEVGAKALGKDYYRILRKTALAVSEKMVEKELRREDRYVVALVKALEEIDESINMLNEKLEDIRAVKESEITEKFEKKIRELRELRRDVEREIEEVMEKIAPNMTELVGAKVAAKLLERAGSMERLVRLPASKIQVIGAEKSLYKAFARMKKGKKAKIPKHGIIFLHPFIRTLPKAKRGKMARFLAAKLAIAAKIDYFRGEIDESLYESIRRRYEELRRK	soluble
LTGFQVGPMLQYQTGFHGIVLDFSLLYVERGIKLTNTSNRRSADIKTQSIDIPIELKWEMGMSNNFDLFLGVGPSFSFLVDKDNWGRKLAHIAVDVIDKDLPSMGWRSTEVGLNLGGGVKIVNHLMVSCYYNIGLTQSAKHNIGGNKHDAIDQIFDGDVFESKNRYWQLSLAYVF	not soluble
LVDGSLCELRYSWAKIDTYQHVNNFITLNQVKIALAQSRCHNHHLDSTTITVWYDSAFSVMRDLKGIGANHVSGRSHGLTSRRTLLQVERAYQAFKNDQGLLPATYQVCFGVIHL	not soluble
LWHASIAIVGSRQPSAGGLDHSYGFAQALAARGLGIISGMAAGIDATAHEAALSIPSGHTVAVLGTGPDVPYPARHKKLHARITTDGAVISEYPPGTQPRAAHFPQRNRIIAGLALGTLVVEAGARSGALITARLAAEAGRAVFAVPGSLHNPMTRGCHQLIRQGATLVQDIDQILED	not soluble
MAAALPRTLGELQLYRILQKANLLSYFDAFIQQGGDDVQQLCEAGEEEFLEIMALVGMASKPLHVRRLQKALRDWVTNPGLFNQPLTSLPVSSIPIYKLPEGSPTWLGISCSSYERSSNAREPHLKIPKCAATTCVQSLGQGKSDVVGSLALQSVGESRLWQGHHATESEHSLSPADLGSPASPKESSEALDAAAALSVAECVERMAPTLPKSDLNEVKELLKTNKKLAKMIGHIFEMNDDDPHKEEEIRKYSAIYGRFDSKRKDGKHLTLHELTVNEAAAQLCVKDNALLTRRDELFALARQISREVTYKYTYRTTKSKCGERDELSPKRIKVEDGFPDFQDSVQTLFQQARAKSEELAALSSQQPEKVMAKQMEFLCNQAGYERLQHAERRLSAGLYRQSSEEHSPNGLTSDNSDGQGERPLNLRMPNLQNRQPHHFVVDGELSRLYPSEAKSHSSESLGILKDYPHSAFTLEKKVIKTEPEDSR	soluble
MAAFMEEALVEARRARDAGEVPVGCVFVHGDKVVARGGNEVNVHRNATRHAEFICIDAILASCRERRLPARQLFSEITVVVTVEPCIMCSAALHTLGVKEIIYGCENDRFGGKTVVDVAAVVGHRIEITGGVRADEAMALLKDFYKGDNPAAPPQAKKKKLEHHHHHH	soluble
MAAGSEATTPVIVAAGAGGEEGEHVKPFKPEKAKEIIMSLQQPAIFCNMVFDWPARHWNAKYLSQVLHGKQIRFRMGMKSMSTVPQFETTCNYVEATLEEFLTWNCDQSSISGPFRDYDHSKFWAYADYKYFVSLFEDKTDLFQDVKWSDFGFPGRNGQESTLWIGSLGAHTPCHLDSYGCNLVFQVQGRKRWHLFPPEDTPFLYPTRIPYEESSVFSKINVVNPDLKRFPQFRKAQRHAVTLSPGQVLFVPRHWWHYVESIDPVTVSINSWIELEEDHLARVEEAITRMLVCALKTAENPQNTRAWLNPTEVEETSHAVNCCYLNAAVSAFFDRCRTSEVVEIQALRTDGEHMKKEELNVCNHMEVGQTGSQNLTTGTDKPEAASPFGPDLVPVAQRSEEPPSERGGIFGSDGKDFVDKDGEHFGKLHCAKRQQIMSNSENAIEEQIASNTTTTPQTFISTDDLLDCLVNPQVTRIVAQLLIQGRSL	not soluble
MAAKLEKTTNSFEVITREWYAKFSPTWNESHGERIIRRFERDIFPWIGSKPISEIAAPELLATVRRIESRGAVETAHRALGNCGQVFRYAIATARATRDISADLRGALPPVKGEHLEHHHHHH	soluble
MAAMPKPAAFWNDRFANEEYVYGEAPNRFVASAARTWLPEAGEVLLLGAGEGRNAVHLAREGHTVTAVDYAVEGLRKTERLATEAGVEVEAIQADVREWKPARAWDAVVVTFLHLPADERPGLYRLVQRCLRPGGRLVAEWFRPEQRTDGYTSGGPPDPAMMVTADELRGHFAEAGIDHLEAAEPTLDEGMHRGPAATVRLVWCRPSTSLEHHHHHH	soluble
MAAPILFWHRRDLRLSDNIGLAAARAQSAQLIGLFCLDPQILQSADMAPARVAYLQGCLQELQQRYQQAGSRLLLLQGDPQHLIPQLAQQLQAEAVYWNQDIEPYGRDRDGQVAAALKTAGIRAVQLWDQLLHSPDQILSGSGNPYSVYGPFWKNWQAQPKPTPVATPTELVDLSPEQLTAIAPLLLSELPTLKQLGFDWDGGFPVEPGETAAIARLQEFCDRAIADYDPQRNFPAEAGTSGLSPALKFGAIGIRQAWQAASAAHALSRSDEARNSIRVWQQELAWREFYQHALYHFPSLADGPYRSLWQQFPWENREALFTAWTQAQTGYPIVDAAMRQLTETGWMHNRCRMIVASFLTKDLIIDWRRGEQFFMQHLVDGDLAANNGGWQWSASSGMDPKPLRIFNPASQAKKFDATATYIKRWLPELRHVHPKDLISGEITPIERRGYPAPIVNHNLRQKQFKALYNQLKAAIAEPEAEPDS	soluble
MAAPKLGFFEKIANLTGALYRHQHAQFPRRFAILKAVGKHELAPPRQADWPAIKADWAKVQSFIQTGGYKNLSIREGLVYTAVTLEVVFWFFVGEMIGRRYIFGYLVPADYVSKSTKKTVKEQEALAALEN	not soluble
MAASLRSFLEQLKRQNSLYLVKKPVNPRFELGALLKKTKGTVPMFFQNIEGYDVPAVGGIVGTRENFAQALRINKSELLAKITEAITNPGETRLLPSGPVQENVLTKGFDIGKMFPIPTFHEKDSGAFITAGIVVAKDPIYGRRFTSIRRMQLNGPNNLSILIESPGLIEQYYEFERRGQAMEVAIVLGVHPAITLSSQLPTQTFGLDKYNVASRLIGEPLPVVKCKTIDLEVPADAEIVLEGRMLPYVRHPEGPFGELMGYYGPQTMQPVVEVTAVTFRNNPIFQVIFPSSYEHKLPNALMREVVLFNHVRHVVPTVQDVHLTMAGGGRCHAIISIKKTAEGQGKQAIFAALASNKDVKHVVVVNDDVDIFDPEDVEWAIATRVQADQDIIIIPGAQGTPLEPSHNLRGVSAKMGIDATYPLAEEERFARTQIPGYDQIRLEDYLTLDW	soluble
MAATSSTSSQSFDIELDIIGQQPPLLSIYTQISLVYPVSDPSQYPTIVSTLEEGLKRLSQTFPWVAGQVKTEGISEGNTGTSKIIPYEETPRLVVKDLRDDSSAPTIEGLRKAGFPLEMFDENVVAPRKTLAIGPGNGPNDPKPVLLLQLNFIKGGLILTVNGQHGAMDMTGQDAIIRLLSKACRNESFTEEEISAMNLDRKTVVPLLENYKVGPELDHQIAKPAPAGDAPPAPAKATWAFFSFTPKALSELKDAATKTLDASSKFVSTDDALSAFIWQSTSRVRLARLDASTPTEFCRAVDMRGPMGVSSTYPGLLQNMTYHDSTVAEIANEPLGATASRLRSELNSDRLRRRTQALATYMHGLPDKSSVSLTADANPSSSIMLSSWAKVGCWEYDFGFGLGKPESVRRPRFEPFESLMYFMPKKPDGEFTASISLRDEDMERLKADEEWTKYAKYIG	soluble
MACHELSALRIAIGELLEKEAHDLLHEREELAPVLGQRPELKRLAEAKTLPALEEALREALLHLEERAAQEPEEPYWRGLLLAVEAMEGRLKALRAEAEALYQDLDALHGRLHRLFPRRR	soluble
